In PMC9482650, “Quantitative fragmentomics allow affinity mapping of interactomes” (Nature Communications, 2022):

Columns and labels:
Test in all cases: holdup assay
Design in all cases: key: below the threshold = too weak to quantify, mostly under pKd 3.1 to 4
Details in all cases: plain residues with an end cap or a label only (N-terminal biotin on a linker: ado-ado)
MAGI2_6, Q86UL8 = target: MAGI2_6, Q86UL8
PCLO, Q9Y6V0 = target: T1, PCLO, Q9Y6V0
T1 sequence (Q9Y6V0 4491-4600, limits assumed, looked up): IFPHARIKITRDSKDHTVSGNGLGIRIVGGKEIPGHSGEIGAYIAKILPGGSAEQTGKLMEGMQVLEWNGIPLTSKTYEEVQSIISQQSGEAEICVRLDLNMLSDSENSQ

MPP6, Q9NZW5 = target: T2, MPP6, Q9NZW5
T2 sequence (Q9NZW5 125-219, limits assumed, looked up): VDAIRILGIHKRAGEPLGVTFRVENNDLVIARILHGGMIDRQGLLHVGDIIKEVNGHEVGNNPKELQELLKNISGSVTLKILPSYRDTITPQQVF

HTRA2, O43464 = target: HTRA2, O43464
DVL3, Q92997 = target: T3, DVL3, Q92997
T3 sequence (Q92997 244-331, limits assumed, looked up): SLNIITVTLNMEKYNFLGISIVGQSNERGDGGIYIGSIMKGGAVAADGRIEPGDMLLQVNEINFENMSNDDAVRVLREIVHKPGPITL

IL16_1, Q14005 = target: IL16_1, Q14005
APBA2_1, Q99767 = target: T4, APBA2_1, Q99767
T4 sequence (Q99767 563-664, limits assumed, looked up): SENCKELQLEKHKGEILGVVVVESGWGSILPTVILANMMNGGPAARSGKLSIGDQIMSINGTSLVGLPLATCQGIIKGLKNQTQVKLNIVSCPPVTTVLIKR

ARHGEF12, Q9NZN5-2 = target: ARHGEF12, Q9NZN5-2
FRMPD1, Q5SYB0 = target: T5, FRMPD1, Q5SYB0
T5 sequence (Q5SYB0 52-145, limits assumed, looked up): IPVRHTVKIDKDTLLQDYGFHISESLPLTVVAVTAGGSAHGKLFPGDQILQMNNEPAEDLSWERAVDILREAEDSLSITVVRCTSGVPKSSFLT

GRIP1_2, Q9Y3R0 = target: T6, GRIP1_2, Q9Y3R0
T6 sequence (Q9Y3R0 145-248, limits assumed, looked up): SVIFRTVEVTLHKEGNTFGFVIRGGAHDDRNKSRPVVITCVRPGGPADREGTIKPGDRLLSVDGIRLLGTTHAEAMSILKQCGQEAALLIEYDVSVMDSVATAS

NHERF4_2, Q86UT5 = target: NHERF4_2, Q86UT5
TJP3_3, O95049 = target: T7, TJP3_3, O95049
T7 sequence (O95049 375-456, limits assumed, looked up): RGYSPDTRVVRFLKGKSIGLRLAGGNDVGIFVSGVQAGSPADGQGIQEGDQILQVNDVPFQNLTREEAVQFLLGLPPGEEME

CASK, O14936 = target: CASK, O14936
TIAM2, Q8IVF5 = target: T8, TIAM2, Q8IVF5
T8 sequence (Q8IVF5 885-986, limits assumed, looked up): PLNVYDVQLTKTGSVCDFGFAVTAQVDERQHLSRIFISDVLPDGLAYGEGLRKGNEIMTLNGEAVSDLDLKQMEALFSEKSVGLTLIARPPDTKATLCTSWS

CARD11, Q9BXL7 = target: T9, CARD11, Q9BXL7
T9 sequence (Q9BXL7 662-765, limits assumed, looked up): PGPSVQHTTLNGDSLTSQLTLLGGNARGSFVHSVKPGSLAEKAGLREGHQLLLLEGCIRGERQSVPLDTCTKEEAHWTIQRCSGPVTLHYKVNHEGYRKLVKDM

NOS1, P29475 = target: NOS1, P29475
APBA3_1, O96018 = target: T10, APBA3_1, O96018
T10 sequence (O96018 389-490, limits assumed, looked up): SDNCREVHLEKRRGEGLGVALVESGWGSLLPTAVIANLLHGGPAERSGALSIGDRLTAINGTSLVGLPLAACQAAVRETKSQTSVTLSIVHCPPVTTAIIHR

ARHGEF11, O15085 = target: T11, ARHGEF11, O15085
T11 sequence (O15085 42-136, limits assumed, looked up): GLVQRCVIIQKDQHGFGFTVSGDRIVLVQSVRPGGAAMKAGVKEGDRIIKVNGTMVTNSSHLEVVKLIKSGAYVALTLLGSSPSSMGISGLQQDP

SNTA1, Q13424 = target: T12, SNTA1, Q13424
T12 sequence (Q13424 82-180, limits assumed, looked up): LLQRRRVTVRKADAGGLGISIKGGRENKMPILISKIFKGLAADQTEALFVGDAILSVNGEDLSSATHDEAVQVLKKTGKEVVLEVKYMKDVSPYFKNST

PICK1, Q9NRD5 = target: PICK1, Q9NRD5
GRIP2_3, Q9C0E4 = target: GRIP2_3, Q9C0E4
DLG5_1, Q8TDM6 = target: DLG5_1, Q8TDM6
GRIP2_6, Q9C0E4 = target: GRIP2_6, Q9C0E4
Inadl_6, Q8NI35 = target: Inadl_6, Q8NI35
NHERF3_1, Q5T2W1 = target: T13, NHERF3_1, Q5T2W1
T13 sequence (Q5T2W1 4-100, limits assumed, looked up): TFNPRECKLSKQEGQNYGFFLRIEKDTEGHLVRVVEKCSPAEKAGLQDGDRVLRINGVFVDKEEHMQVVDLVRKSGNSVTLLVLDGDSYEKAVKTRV

Chain of CASK, O14936 (O14936 487-570): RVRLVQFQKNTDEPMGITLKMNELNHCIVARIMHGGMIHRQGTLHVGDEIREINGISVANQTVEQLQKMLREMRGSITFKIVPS
Chain of MAGI2_6, Q86UL8 (Q86UL8 1141-1229): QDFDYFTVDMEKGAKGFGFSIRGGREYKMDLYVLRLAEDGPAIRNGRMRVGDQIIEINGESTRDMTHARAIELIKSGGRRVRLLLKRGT
Chain of GRIP2_3, Q9C0E4 (Q9C0E4 238-339): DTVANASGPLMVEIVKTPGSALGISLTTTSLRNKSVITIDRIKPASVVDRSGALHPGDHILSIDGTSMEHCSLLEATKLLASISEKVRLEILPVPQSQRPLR
Chain of HTRA2, O43464 (O43464 355-458): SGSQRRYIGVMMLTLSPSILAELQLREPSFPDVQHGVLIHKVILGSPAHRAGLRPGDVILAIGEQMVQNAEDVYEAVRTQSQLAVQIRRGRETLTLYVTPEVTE
Chain of IL16_1, Q14005 (Q14005 210-306): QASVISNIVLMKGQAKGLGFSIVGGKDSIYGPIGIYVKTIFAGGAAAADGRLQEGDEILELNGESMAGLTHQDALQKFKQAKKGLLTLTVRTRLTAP
Chain of NHERF4_2, Q86UT5 (Q86UT5 220-308): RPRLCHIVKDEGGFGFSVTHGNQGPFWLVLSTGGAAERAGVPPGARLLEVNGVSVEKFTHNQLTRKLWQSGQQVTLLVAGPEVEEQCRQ
Chain of ARHGEF12, Q9NZN5-2 (Q9NZN5 other isoform, or with tags, fused parts or gaps): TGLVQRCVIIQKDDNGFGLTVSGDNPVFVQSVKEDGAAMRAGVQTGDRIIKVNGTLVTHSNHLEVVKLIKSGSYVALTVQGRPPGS
Chain of Inadl_6, Q8NI35 (Q8NI35 1058-1167): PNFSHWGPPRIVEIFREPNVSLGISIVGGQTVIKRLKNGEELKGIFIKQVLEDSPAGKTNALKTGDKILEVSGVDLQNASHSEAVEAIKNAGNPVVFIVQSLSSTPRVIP
Chain of PICK1, Q9NRD5 (Q9NRD5 17-115): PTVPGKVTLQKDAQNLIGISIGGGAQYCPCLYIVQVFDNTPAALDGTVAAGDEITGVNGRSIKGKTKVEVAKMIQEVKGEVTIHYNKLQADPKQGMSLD
Chain of GRIP2_6, Q9C0E4 (Q9C0E4 648-740): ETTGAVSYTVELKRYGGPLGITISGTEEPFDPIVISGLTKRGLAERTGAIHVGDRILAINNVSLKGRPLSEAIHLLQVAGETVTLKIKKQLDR
Chain of NOS1, P29475 (P29475 9-101): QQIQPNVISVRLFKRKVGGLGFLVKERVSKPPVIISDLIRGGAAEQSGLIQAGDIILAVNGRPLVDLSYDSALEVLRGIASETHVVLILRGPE
Chain of DLG5_1, Q8TDM6 (Q8TDM6 617-713): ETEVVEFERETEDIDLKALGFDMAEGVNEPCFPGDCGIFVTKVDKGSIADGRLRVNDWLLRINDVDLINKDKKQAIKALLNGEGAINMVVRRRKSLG

For PKLMGVETVV [DUSP10, Q9Y6W6], the pKd (MAGI2_6, Q86UL8) was 3.99, the pKd (PCLO, Q9Y6V0) was “below the threshold” and the pKd (MPP6, Q9NZW5) was 3.82. The pKd (HTRA2, O43464) was “below the threshold”, the pKd (DVL3, Q92997) was “below the threshold” and the pKd (IL16_1, Q14005) was 4.38. The pKd (APBA2_1, Q99767) was “below the threshold”, the pKd (ARHGEF12, Q9NZN5-2) was 3.74 and the pKd (FRMPD1, Q5SYB0) was “below the threshold”. The pKd (GRIP1_2, Q9Y3R0) was “below the threshold”, the pKd (NHERF4_2, Q86UT5) was “below the threshold” and the pKd (TJP3_3, O95049) was “below the threshold”. For the same binder, the pKd (CASK, O14936) was “below the threshold”, the pKd (TIAM2, Q8IVF5) was “below the threshold” and the pKd (CARD11, Q9BXL7) was “below the threshold”. The pKd (NOS1, P29475) was 4.08, the pKd (APBA3_1, O96018) was “below the threshold” and the pKd (ARHGEF11, O15085) was 4. For the same binder, the pKd (SNTA1, Q13424) was 5.13, the pKd (PICK1, Q9NRD5) was “below the threshold” and the pKd (GRIP2_3, Q9C0E4) was “below the threshold”. The pKd (DLG5_1, Q8TDM6) was “below the threshold”, the pKd (GRIP2_6, Q9C0E4) was “below the threshold” and the pKd (Inadl_6, Q8NI35) was 3.53. The pKd (NHERF3_1, Q5T2W1) was “below the threshold”.

For QLAEIAESGL [ITK, Q08881], the pKd (MAGI2_6, Q86UL8) was 3.68, the pKd (PCLO, Q9Y6V0) was “below the threshold” and the pKd (MPP6, Q9NZW5) was “below the threshold”. The pKd (HTRA2, O43464) was “below the threshold”, the pKd (DVL3, Q92997) was “below the threshold” and the pKd (IL16_1, Q14005) was 3.48. The pKd (APBA2_1, Q99767) was 3.58, the pKd (ARHGEF12, Q9NZN5-2) was “below the threshold” and the pKd (FRMPD1, Q5SYB0) was “below the threshold”. The pKd (GRIP1_2, Q9Y3R0) was “below the threshold”, the pKd (NHERF4_2, Q86UT5) was 3.57 and the pKd (TJP3_3, O95049) was “below the threshold”. The pKd (CASK, O14936) was “below the threshold”, the pKd (TIAM2, Q8IVF5) was “below the threshold” and the pKd (CARD11, Q9BXL7) was “below the threshold”. For the same binder, the pKd (NOS1, P29475) was “below the threshold”, the pKd (APBA3_1, O96018) was “below the threshold” and the pKd (ARHGEF11, O15085) was 4.05. The pKd (SNTA1, Q13424) was 3.63, the pKd (PICK1, Q9NRD5) was “below the threshold” and the pKd (GRIP2_3, Q9C0E4) was 3.53. The pKd (DLG5_1, Q8TDM6) was 3.78, the pKd (GRIP2_6, Q9C0E4) was 3.48 and the pKd (Inadl_6, Q8NI35) was “below the threshold”. The pKd (NHERF3_1, Q5T2W1) was 4.76.

For EGGKKRESEA [APPL1, Q9UKG1], the pKd (MAGI2_6, Q86UL8) was “below the threshold”, the pKd (PCLO, Q9Y6V0) was “below the threshold” and the pKd (MPP6, Q9NZW5) was “below the threshold”. For the same binder, the pKd (HTRA2, O43464) was “below the threshold”, the pKd (DVL3, Q92997) was “below the threshold” and the pKd (IL16_1, Q14005) was “below the threshold”. The pKd (APBA2_1, Q99767) was “below the threshold”, the pKd (ARHGEF12, Q9NZN5-2) was “below the threshold” and the pKd (FRMPD1, Q5SYB0) was “below the threshold”. For the same binder, the pKd (GRIP1_2, Q9Y3R0) was “below the threshold”, the pKd (NHERF4_2, Q86UT5) was “below the threshold” and the pKd (TJP3_3, O95049) was “below the threshold”. The pKd (CASK, O14936) was “below the threshold”, the pKd (TIAM2, Q8IVF5) was 4.02 and the pKd (CARD11, Q9BXL7) was “below the threshold”. The pKd (NOS1, P29475) was “below the threshold”, the pKd (APBA3_1, O96018) was “below the threshold” and the pKd (ARHGEF11, O15085) was “below the threshold”. The pKd (SNTA1, Q13424) was “below the threshold”, the pKd (PICK1, Q9NRD5) was “below the threshold” and the pKd (GRIP2_3, Q9C0E4) was “below the threshold”. The pKd (DLG5_1, Q8TDM6) was “below the threshold”, the pKd (GRIP2_6, Q9C0E4) was “below the threshold” and the pKd (Inadl_6, Q8NI35) was “below the threshold”. The pKd (NHERF3_1, Q5T2W1) was “below the threshold”.

For VGIERETDVL [EZH1, Q92800], the pKd (MAGI2_6, Q86UL8) was “below the threshold”, the pKd (PCLO, Q9Y6V0) was “below the threshold” and the pKd (MPP6, Q9NZW5) was “below the threshold”. For the same binder, the pKd (HTRA2, O43464) was “below the threshold”, the pKd (DVL3, Q92997) was “below the threshold” and the pKd (IL16_1, Q14005) was “below the threshold”. The pKd (APBA2_1, Q99767) was “below the threshold”, the pKd (ARHGEF12, Q9NZN5-2) was “below the threshold” and the pKd (FRMPD1, Q5SYB0) was “below the threshold”. For the same binder, the pKd (GRIP1_2, Q9Y3R0) was “below the threshold”, the pKd (NHERF4_2, Q86UT5) was “below the threshold” and the pKd (TJP3_3, O95049) was “below the threshold”. The pKd (CASK, O14936) was “below the threshold”, the pKd (TIAM2, Q8IVF5) was 3.49 and the pKd (CARD11, Q9BXL7) was “below the threshold”. For the same binder, the pKd (NOS1, P29475) was “below the threshold”, the pKd (APBA3_1, O96018) was “below the threshold” and the pKd (ARHGEF11, O15085) was “below the threshold”. The pKd (SNTA1, Q13424) was 4.63, the pKd (PICK1, Q9NRD5) was 4.09 and the pKd (GRIP2_3, Q9C0E4) was “below the threshold”. For the same binder, the pKd (DLG5_1, Q8TDM6) was “below the threshold”, the pKd (GRIP2_6, Q9C0E4) was “below the threshold” and the pKd (Inadl_6, Q8NI35) was “below the threshold”. For the same binder, the pKd (NHERF3_1, Q5T2W1) was “below the threshold”.

GSSSKEGTSV [RRBP1, Q9P2E9] was tested, and the pKd (MAGI2_6, Q86UL8) was 4.02, the pKd (PCLO, Q9Y6V0) was “below the threshold” and the pKd (MPP6, Q9NZW5) was 3.77. For the same binder, the pKd (HTRA2, O43464) was “below the threshold”, the pKd (DVL3, Q92997) was “below the threshold” and the pKd (IL16_1, Q14005) was “below the threshold”. For the same binder, the pKd (APBA2_1, Q99767) was “below the threshold”, the pKd (ARHGEF12, Q9NZN5-2) was 3.91 and the pKd (FRMPD1, Q5SYB0) was “below the threshold”. The pKd (GRIP1_2, Q9Y3R0) was “below the threshold”, the pKd (NHERF4_2, Q86UT5) was “below the threshold” and the pKd (TJP3_3, O95049) was “below the threshold”. The pKd (CASK, O14936) was “below the threshold”, the pKd (TIAM2, Q8IVF5) was “below the threshold” and the pKd (CARD11, Q9BXL7) was “below the threshold”. For the same binder, the pKd (NOS1, P29475) was 3.72, the pKd (APBA3_1, O96018) was “below the threshold” and the pKd (ARHGEF11, O15085) was 3.83. The pKd (SNTA1, Q13424) was 3.8, the pKd (PICK1, Q9NRD5) was 4.14 and the pKd (GRIP2_3, Q9C0E4) was “below the threshold”. The pKd (DLG5_1, Q8TDM6) was “below the threshold”, the pKd (GRIP2_6, Q9C0E4) was “below the threshold” and the pKd (Inadl_6, Q8NI35) was “below the threshold”. The pKd (NHERF3_1, Q5T2W1) was “below the threshold”.
